Measurements: CN110616192A

Key:
神经丝轻链(NEFL) (human) [1] = target: 神经丝轻链(NEFL) (human) (UniProt P07196); experiment: indirect ELISA titre, serial two-fold dilution of purified antibody
神经丝轻链(NEFL) (human) [2] = target: 神经丝轻链(NEFL) (human) (UniProt P07196); experiment: indirect ELISA, antigen coated at 5 μg/ml, antibody diluted 10^4-fold
神经丝轻链(NEFL) (human) [3] = target: 神经丝轻链(NEFL) (human) (UniProt P07196); experiment: calculated from the indirect ELISA titre

UniProt P07196, sequence (P07196 1-360 limits assumed): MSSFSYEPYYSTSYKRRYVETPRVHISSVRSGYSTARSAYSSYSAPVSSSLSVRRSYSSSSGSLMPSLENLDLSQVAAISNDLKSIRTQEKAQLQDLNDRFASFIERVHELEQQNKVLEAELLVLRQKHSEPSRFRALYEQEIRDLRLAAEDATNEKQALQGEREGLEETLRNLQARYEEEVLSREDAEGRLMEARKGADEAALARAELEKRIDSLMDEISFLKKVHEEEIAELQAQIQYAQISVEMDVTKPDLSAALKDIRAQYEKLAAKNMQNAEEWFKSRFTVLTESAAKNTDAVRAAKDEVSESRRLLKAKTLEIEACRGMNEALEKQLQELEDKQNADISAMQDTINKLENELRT

抗体效价 (神经丝轻链(NEFL) (human) [1]) | OD450 (神经丝轻链(NEFL) (human) [2]) [OD450] | Ka (神经丝轻链(NEFL) (human) [3]) [M⁻¹] | Substance
512000 | > 1.5 |  | 抗NEFL单克隆抗体OTI11F8 (antibody)
1.02e+06 | > 1.5 |  | 抗NEFL单克隆抗体OTI2F5 (antibody)
1.02e+06 | > 1.5 | 1.4e+09 | 抗人神经丝轻链(NEFL)单克隆抗体OTI11F6 (antibody)
512000 | > 1.5 |  | 抗NEFL单克隆抗体OTI3G2 (antibody)
